Source: PMC4954055, “A Self‐Assembled Respiratory Chain that Catalyzes NADH Oxidation by Ubiquinone‐10 Cycling between Complex I and the Alternative Oxidase” (Angewandte Chemie (International Ed. in English), 2015)

Substrate: COC1=C(OC)C(=O)C(C/C=C(\C)CC/C=C(\C)CC/C=C(\C)CC/C=C(\C)CC/C=C(\C)CC/C=C(\C)CC/C=C(\C)CC/C=C(\C)CC/C=C(\C)CCC=C(C)C)=C(C)C1=O
Experiment: NADH:O2 oxidoreduction in Q10 proteoliposomes, Michaelis-Menten fit
Format: biochemical, Bos taurus
Conditions: 200 μM NADH, 15 μg/mL alamethicin, 10 mM Tris-SO4 pH 7.5, 50 mM KCl, 32 °C, excess AOX reoxidizes Q10H2, membrane-phase concentration, stated as approximately 3.9 mM Q10 in the membrane phase

B1: complex I (NADH:ubiquinone oxidoreductase, CI) (Bos taurus) (protein)
chain 1: ARQWQPDVEWAEQYGGAVMYPTKETAHWKPPPWNDVDPPKDTLVSNLTLNFGPQHPAAHGVLRLVMELSGEMVRKCDPHIGLLHRGTEKLIEYKTYLQALPYFDRLDYVSMMCNEQAYSLAVEKLLNIQPPPRAQWIRVLFGEITRLLNHIMAVTTHALDIGAMTPFFWMFEEREKMFEFYERVSGARMHAAYVRPGGVHQDLPLGLMDDIYEFSKNFSLRIDELEEMLTNNRIWRNRTVDIGIVTAEDALNYGFSGVMLRGSGIQWDLRKTQPYDVYDQVEFDVPIGSRGDCYDRYLCRVEEMRQSIRIISQCLNKMPPGEIKVDDAKVSPPKRAEMKTSMESLIHHFKLYTEGYQVPPGATYTAIEAPKGEFGVYLVSDGSSRPYRCKIKAPGFAHLAGLDKMSKGHMLADVVAIIGTQDIVFGEVDR
chain 2: not shown
chain 3: not shown
notes: native complex purified from heart mitochondria, detergent-solubilized, reconstituted into proteoliposomes with Q10 and AOX; with NADH dehydrogenase [ubiquinone] flavoprotein 1, mitochondrial; NADH dehydrogenase [ubiquinone] flavoprotein 2, mitochondrial; NADH-ubiquinone oxidoreductase 75 kDa subunit, mitochondrial; NADH dehydrogenase [ubiquinone] iron-sulfur protein 3, mitochondrial; NADH …
kcat: 500 s⁻¹
